In the supplement of paper PMC10126150:
± gives the standard deviation of the averaged measurements.

System: ATP
Assay: switch fluorescence ratio, 500 uM ATP over buffer (Cy3 cluster intensity, sum of 5 cycles each) (fold (ratio)); higher = stronger signal-on switching upon ATP binding; sequences stand for … in TCGTCGGCAGCGTCAGATGTGTATAAGAGACAGTTTTTTTTTTTTTTTTTTTTTTTTT…TC
Details: aptamer strand: ATP DNA aptamer (quencher-CACCTGGGGGAGTATTGCGGAGGAAGG + anchor), 100 nM annealed; ATP concentration: 500 uM
Outline: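 The fluorescence ratio divides summed target-cycle Cy3 intensity by summed buffer-cycle Cy3 intensity for each cluster and is averaged per switch-domain sequence. Cy3-labelled switching-strand clusters on a modified Illumina MiSeq flow-cell were annealed to 100 nM quencher-labelled ATP aptamer, then imaged in selection buffer and again after 15 min with 500 uM ATP at 22 °C. Five such cycles were run, with NaOH stripping and re-annealing between them, and clusters outside 100-1000 RFU were excluded.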
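Also: ATP exposure 15 min at 22 °C before imaging.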

Sequence	switch fluorescence ratio
TTGATGTGGG	0.975 ± 0.029
TTGATGTGTT	1 ± 0.028
TTGATTAAAT	0.9575 ± 0.0089
TTGATTAAGC	1.03 ± 0.043
TTGATTAATA	0.962 ± 0.022
TTGATTACTT	1 ± 0.04
TTGATTGGCA	0.993 ± 0.025
TTGATTTATT	0.994 ± 0.017
TTGATTTTGT	1.01 ± 0.019
TTGATTTTTA	0.99 ± 0.044
TTGATTTTTT	0.996 ± 0.029
TTGCAAAAGC	1 ± 0.065
TTGCAACTTT	1.12 ± 0.17
TTGCAAGAAT	1.023 ± 0.0021
TTGCAAGCGG	0.995 ± 0.011
TTGCACCGGT	1.034 ± 0.0055
TTGCACGGGT	1.01 ± 0.02
TTGCAGGAGG	1 ± 0.019
TTGCAGGGT	0.9804 ± 0.0019
TTGCATAGGG	1.02 ± 0.023
TTGCATATTT	1.05 ± 0.033
TTGCATGGTG	1.06 ± 0.03
TTGCCAAGTG	1.01 ± 0.02
TTGCCATGTG	1 ± 0.034
TTGCCGATAC	2.16 ± 0.12
TTGCCGCTTG	1.21 ± 0.33

Sequence	switch fluorescence ratio
TTGCCGGGAG	1.02 ± 0.066
TTGCCGGTAT	1.05 ± 0.021
TTGCCGTTCA	1.02 ± 0.013
TTGCCTGCAT	1.011 ± 0.0092
TTGCCTTCCG	2.17 ± 0.27
TTGCGAGCTT	0.986 ± 0.061
TTGCGAGGGG	0.9778 ± 0.006
TTGCGATGGG	0.995 ± 0.03
TTGCGCGGGG	1.02 ± 0.077
TTGCGGCGTG	0.956 ± 0.024
TTGCGGGAAC	1.07 ± 0.063
TTGCGGGGAA	1.03 ± 0.029
TTGCGGGGGA	1.01 ± 0.028
TTGCGGGGT	1.02 ± 0.011
TTGCGGTTAG	1.012 ± 0.0017
TTGCGGTTGA	1.0313 ± 0.00057
TTGCGGTTGG	1 ± 0.076
TTGCGTATGC	1.08 ± 0.11
TTGCTAATAT	1.038 ± 0.0093
TTGCTACAGT	1.01 ± 0.019
TTGCTATCAG	1 ± 0.047
TTGCTCAGGG	1.03 ± 0.041
TTGCTCGCCG	1.08 ± 0.035
TTGCTCTAAC	0.998 ± 0.022
TTGCTCTCTT	0.98 ± 0.083
TTGCTCTTTT	1.019 ± 0.0013

Sequence	switch fluorescence ratio
TTGCTGGGTG	1.1 ± 0.056
TTGCTGGTTG	1.01 ± 0.03
TTGCTGTACT	1.02 ± 0.021
TTGCTGTGTC	1.07 ± 0.028
TTGCTGTTGG	1.03 ± 0.033
TTGCTGTTGT	1.01 ± 0.022
TTGCTTAAGT	1.03 ± 0.075
TTGCTTCCAC	1.08 ± 0.032
TTGCTTGGTT	0.996 ± 0.011
TTGCTTTGTC	0.994 ± 0.013
TTGCTTTTAT	0.991 ± 0.024
TTGGAAAAGG	1.02 ± 0.029
TTGGAAAATT	1.21 ± 0.35
TTGGAAATTG	1.01 ± 0.019
TTGGAATATT	0.9812 ± 0.0027
TTGGACATAT	1.008 ± 0.0039
TTGGACATGG	0.963 ± 0.012
TTGGACCATG	1.01 ± 0.038
TTGGACGGTT	1 ± 0.015
TTGGACTAGC	0.981 ± 0.033
TTGGACTAGT	1.018 ± 0.0023
TTGGAGAAGG	0.998 ± 0.018
TTGGAGCCCT	1.069 ± 0.0022
TTGGAGGGGT	1.09 ± 0.15
TTGGAGTCCC	0.99 ± 0.022
TTGGAGTTCG	0.982 ± 0.013

Sequence	switch fluorescence ratio
TTGGAGTTG	1.02 ± 0.048
TTGGATGGGG	0.972 ± 0.017
TTGGATTGGC	0.978 ± 0.023
TTGGATTTAA	1.02 ± 0.012
TTGGCAAGCT	1.06 ± 0.072
TTGGCACGTG	0.985 ± 0.061
TTGGCAGATG	1 ± 0.043
TTGGCATATC	1.89 ± 0.76
TTGGCATGAG	0.987 ± 0.02
TTGGCATGCG	1.01 ± 0.021
TTGGCCATCG	0.954 ± 0.039
TTGGCCATGA	0.976 ± 0.029
TTGGCCGGG	0.9643 ± 0.009
TTGGCGCGCA	1.023 ± 0.0016
TTGGCGCTGG	0.993 ± 0.026
TTGGCTAATA	1.01 ± 0.018
TTGGCTACTG	0.962 ± 0.065
TTGGCTAGTT	1 ± 0.029
TTGGCTGTTT	1.016 ± 0.01
TTGGCTTTGA	0.9893 ± 0.0097
TTGGGAAATA	1.01 ± 0.024
TTGGGAACTA	1.01 ± 0.02
TTGGGAATA	0.988 ± 0.035
TTGGGAATTC	0.98044 ± 0.00048
TTGGGACTAC	1.02 ± 0.036
TTGGGACTTG	0.999 ± 0.054

Sequence	switch fluorescence ratio
TTGGGAGATT	0.971 ± 0.024
TTGGGAGCGT	1.01 ± 0.017
TTGGGAGCTG	1.021 ± 0.0068
TTGGGAGGGT	0.999 ± 0.029
TTGGGATTCG	1.01 ± 0.013
TTGGGATTTA	0.95 ± 0.015
TTGGGCAGAG	0.993 ± 0.043
TTGGGCGTCG	0.995 ± 0.047
TTGGGCTCTA	1.002 ± 0.0012
TTGGGCTGCT	0.9743 ± 0.00051
TTGGGGAAGT	0.994 ± 0.039
TTGGGGACGT	1.01 ± 0.042
TTGGGGAGAA	0.98 ± 0.035
TTGGGGCAGG	1.1 ± 0.07
TTGGGGCATG	0.971 ± 0.011
TTGGGGCTAG	1.02 ± 0.026
TTGGGGGAAT	0.992 ± 0.026
TTGGGGGACC	0.998 ± 0.025
TTGGGGGCAG	1.01 ± 0.018
TTGGGGGGGG	1.01 ± 0.056
TTGGGGGGT	1.06 ± 0.012
TTGGGGGTCA	1.01 ± 0.023
TTGGGGGTCG	1.02 ± 0.034
TTGGGGGTGT	1.03 ± 0.1
TTGGGGTACG	1.01 ± 0.021
TTGGGGTCAG	1 ± 0.038

Sequence	switch fluorescence ratio
TTGGGGTCCA	0.977 ± 0.015
TTGGGGTCGT	0.974 ± 0.03
TTGGGGTGGA	0.99 ± 0.018
TTGGGGTTGG	1.01 ± 0.03
TTGGGTAGAT	0.988 ± 0.025
TTGGGTAGGG	1.01 ± 0.051
TTGGGTCATG	1.036 ± 0.0048
TTGGGTGTTA	0.9907 ± 0.0021
TTGGGTTAGT	1.01 ± 0.019
TTGGGTTCAA	1.4 ± 0.52
TTGGTACATT	0.99163 ± 8.4e-05
TTGGTAGGAG	0.985 ± 0.042
TTGGTAGTCT	1.04 ± 0.012
TTGGTAGTGG	0.977 ± 0.028
TTGGTAGTTG	0.954 ± 0.011
TTGGTATTGA	0.99 ± 0.098
TTGGTCGGG	0.98 ± 0.044
TTGGTCTTAC	1.06 ± 0.096
TTGGTCTTGA	0.994 ± 0.018
TTGGTGACGG	0.986 ± 0.013
TTGGTGAGGG	0.978 ± 0.022
TTGGTGGAAG	1.02 ± 0.0057
TTGGTGGACA	0.976 ± 0.026
